2 molecules from US20260263521A1, “ANTI-CD200R1 ANTIBODY AND USE THEREOF” (AIMED BIO INC., priority 2023, published 2026) can be followed below.

One assay has as its target T1, mouse CD200R1 protein (Mus musculus, UniProt Q9ES57).
T1 construct: purchased R&D systems 2554-CD
T1 sequence (Q9ES57 26-326): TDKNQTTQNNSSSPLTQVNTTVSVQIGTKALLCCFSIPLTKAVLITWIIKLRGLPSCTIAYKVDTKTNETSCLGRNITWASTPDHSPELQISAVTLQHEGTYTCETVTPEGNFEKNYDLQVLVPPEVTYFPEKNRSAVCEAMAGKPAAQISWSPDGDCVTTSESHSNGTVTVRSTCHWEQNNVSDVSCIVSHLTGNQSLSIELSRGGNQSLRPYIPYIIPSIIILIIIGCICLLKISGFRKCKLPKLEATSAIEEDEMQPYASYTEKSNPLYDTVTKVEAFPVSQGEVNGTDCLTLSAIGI
Nature of the assay: ELISA binding to mouse CD200R1. The settings on record: concentrations up to 300 nM. Here is the method: (§1) 96-well plates were coated with human CD200R1 (R&D systems, 3414-CD) and mouse CD200R1 protein (R&D systems, 2554-CD) at a concentration of 2 μg/mL at 4° C. for 16 hours and then were blocked with 3% skim milk. The result was treated with the antibodies at concentrations of 300 nM, 60 nM, 12 nM, 2.4 nM, 0.48 nM, 0.096 nM, and 0.0192 nM, and reacted at room temperature for 2 hours.
(§2) The result was washed with PBST and distilled water, the samples were bound with a goat-derived HRP-conjugated anti-human antibody (Invitrogen, 31482, Goat anti-Human IgG F(ab′)2 Secondary Antibody, HRP) for 1 hour at room temperature, and then washed again with PBST and distilled water. Color was developed with a TMB substrate solution (Thermo Scientific, 34029, 1-Step™ TMB-ELISA Ultra Substrate Solution). The color reaction was stopped with stop solution (Invitrogen, SS04, ELISA Stop Solution). The absorbance was measured at an optical density of 450 nm.

The test system of another assay is cynomolgus CD200R1. Nature of the assay: SPR binding kinetics, cynomolgus CD200R1. The following applies: cynomolgus CD200R1-his captured on anti-His CM5 chip, 1:1 Langmuir fit. Here is the method:
The CD200R1-specific binding ability of the antibodies (P001009 wt, P001009 v1, P001009 v2, P001009 v3, P001009 v4) selected in Example 14 was analyzed using surface plasma resonance (SPR). For the experiment, 30 μg/mL of an anti-histidine antibody was conjugated to a CM5 biacore chip via an amine bond while allowing to flow at 10 μl/min (10,000 RU). Then, 0.25 μg/mL of human or cynomolgus CD200R1 with dual His-tags was captured onto the completed chip for 60 seconds, and the binding ability of each antibody was analyzed. All experiments were performed by association of antibodies for 120 seconds and dissociation of antibodies for 600 seconds. The resulting graphs were fitted using a 1:1 Langmuir binding kinetic model (FIG. 16), and the kinetics of each antibody were calculated.

The target of assay [1] is T2, CD200R1 on HH (CRL-2105) cells (Homo sapiens, UniProt Q8TD46).
T2 construct: HH (CRL-2105) cells, which endogenously express CD200R1; host or cells: HH (CRL-2105) cells
T2 sequence (Q8TD46 25-348): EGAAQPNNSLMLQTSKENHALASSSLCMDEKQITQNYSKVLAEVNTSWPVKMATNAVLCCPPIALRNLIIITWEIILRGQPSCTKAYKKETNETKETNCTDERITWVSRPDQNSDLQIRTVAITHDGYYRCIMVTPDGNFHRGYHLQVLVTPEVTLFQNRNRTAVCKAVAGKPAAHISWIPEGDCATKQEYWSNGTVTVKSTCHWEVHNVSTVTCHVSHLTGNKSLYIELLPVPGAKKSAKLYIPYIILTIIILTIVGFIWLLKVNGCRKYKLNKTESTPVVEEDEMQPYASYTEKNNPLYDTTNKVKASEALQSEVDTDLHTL
Put plainly: Cell binding assay (flow cytometry), HH cells. It counts as cell-based. Here is the method:
The binding ability of the antibodies identified using unique multifaceted antibody discovery technology was identified in HH (CRL-2105) cells, which endogenously express CD200R1, and Jurkat-CD200R1 cells (Source: DiscoverX), which were generated by intranuclear injection of CD200R1 cDNA.
HH and Jurkat-CD200R1 cells were maintained in RPMI 1640 medium supplemented with 10% heat-inactivated FBS and 1% Penicillin/Streptomycin (P/S). The cells were washed by centrifugation at 130 g for 5 minutes. The cells were seeded onto 96-well round-bottom plates (SPL, #34296) at a density of 1×10^5 cells/well in Flow cytometry staining buffer (Invitrogen, #00-4222-26) or FACS buffer. The cells were treated with all 16 substances and the positive control LY3454738 (US 2020/0087395, I-4P, at Eli Lilly) a concentration of 500 nM in the IgG1 form. After incubation for 1 hour at 4° C., the cells were treated with Alexa-647 Goat anti-human IgG (H+L) cross-adsorbed secondary antibody (Invitrogen, #A21445) and incubated at 4° C. for an additional 30 minutes. […]
Cell-binding ability was determined in the same manner as in Example 12. For the six active substances primarily selected in Example 12, the isotype was changed to IgG4 or the LALAPG gene was mutated, and binding activity was determined in the two cell lines mentioned above.
Binding ability was determined in HH, an endogenous T cell line with high CD200R1 expression, and two additional overexpressing cell lines: U937-CD200R overexpressing cells, generated by intranuclear injection of human CD200R1 CDNA into the monocytic cell line U937 (CRL-1593.2) (Source: UMC Utrecht, the Netherlands) and Jurkat-CD200R overexpressing cells, were also cells engineered using a similar method.
All cell lines were maintained in RPMI 1640 medium supplemented with 10% heat-inactivated FBS and 1% penicillin/streptomycin (P/S) and cell binding was determined in the same manner as in Example 12. […]
Specific binding ability was determined using P001009 WT and antibody-optimized mutants, P001009v1, P001009v2, P001009v3, and P001009v4. […]
In general terms: Flow cytometry measures light scatter and fluorescence of single cells or particles in a stream.

Another assay concerns the target T3, human CD200R1 (Homo sapiens, UniProt Q8TD46).
T3 sequence (Q8TD46 25-348): T2 sequence (Q8TD46 25-348)
Nature of the assay: ELISA binding to human CD200R1. The following applies: ELISA, Example 14. Here is the method:
as §1, §2

Substitutions are numbered along the chain they refer to.

B1: P001009: phage display anti-CD200R1 clone; VH SEQ ID NO: 79, VL SEQ ID NO: 94 (antibody, V domains shown)
VH: EVQLLESGGGLVQPGGSLRLSCAASGFTFSSYDMSWVRQAPGKGLEWVSWISHGGGSIYYADSVKGRFTISRDNSKNTLYLQMNSLRAEDTAVYYCARDAPAYSAPLFDYWGQGTLVTVSS
VL: QSVLTQPPSASGTPGQRVTISCSGSSSNIGNNAVNWYQQLPGTAPKLLIYYDSNRPSGVPDRFSGSKSGTSASLAISGLRSEDEADYYCAAWDDSLSGYVFGGGTKLTVL
Consider B1, for which, in the assay with mouse CD200R1 protein, the “binding ability to mouse CD200R1” value is given as “very weak”. In the assay on cynomolgus CD200R1, this molecule had a Ka of 5.63e+06 M⁻¹ s⁻¹. The “cell binding ability, IgG4 or LALAPG mutants” value in assay [1] (HH cells) is “highest efficacy”.

B2: P001009v1: P001009 variant, LC S52 and LC S94 substituted with K and R; VH SEQ ID NO: 79 (antibody, V domains shown)
VH: B1 VH
VL: B1 VL with S53K, S95R
With B2, the “binding ability to human CD200R1 compared to parent” value with human CD200R1 is recorded as “improved”. Moreover, in the assay with cynomolgus CD200R1, the Ka amounted to 5.23e+06 M⁻¹ s⁻¹. In assay [1] (serial dilution from 100 nM), the “binding ability to HH cell line” value is “exhibited binding ability”.
